The results in this text go back to PMC7374751, “TIMP-3 facilitates binding of target metalloproteinases to the endocytic receptor LRP-1 and promotes scavenging of MMP-1” (Scientific Reports, 2020).

Conditions in all cases: both partners purified
Assay [1] has as its target T1, MMP-3 catalytic domain (MMP-3ΔC) (UniProt P08254 100-272).
T1 construct: catalytic domain of MMP-3; pro-domain removed with APMA
Description: enzyme activity of pre-formed complexes against synthetic substrates; 10 nM [35S]TIMP-3 incubated with an equimolar concentration of metalloproteinase for 1 h at 37 °C; complex formation and stability over 24 h checked by activity.

In a further assay the target is T2, MMP-9 (UniProt P14780 107-707).
T2 construct: MMP-9, active enzyme after removal of the pro-domain with APMA
The assay is described as above.

In another assay the target is T3, ectodomain of MMP-14 (UniProt P50281 112-541).
T3 construct: also called MMP-14 ectodomain; MMP-14 catalytic domain
The assay is described as above.

Assay [2] addresses T4, catalytic domain of human MMP-1 (MMP-1ΔC) (human, UniProt P03956 100-269).
T4 construct: catalytic domain of human MMP-1 (lacks the hemopexin domain); pro-domain removed with APMA
T4 sequence (looked up): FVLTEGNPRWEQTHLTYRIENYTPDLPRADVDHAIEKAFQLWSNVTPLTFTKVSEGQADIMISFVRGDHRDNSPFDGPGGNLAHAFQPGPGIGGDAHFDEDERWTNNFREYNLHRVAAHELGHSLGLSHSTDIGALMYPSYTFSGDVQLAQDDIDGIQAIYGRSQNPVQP
Described as above.

For assay [3], the target named is T5, low-density lipoprotein receptor-related protein 1 (LRP-1) (UniProt Q07954 20-4544).
T5 construct: low-density lipoprotein receptor-related protein 1 (LRP-1), bought from Biomac; source: bought: Biomac (Leipzig, Germany)
As to the kind of experiment: SPR; BIAcore T200; LRP-1 immobilised on a CM5 chip by amine coupling (3000 RU); 25 °C; 150 mM NaCl, 10 mM CaCl2, 50 mM Tris-HCl, 0.01% Tween-20, pH 7.5; 30 μl/min; ligands or pre-formed complexes injected; one-site binding model; triplicate. For orientation: Surface plasmon resonance follows binding to a sensor surface in real time, without labels.

Assay [4] has as its target T6, FLAG-tagged ADAMTS-4 lacking the C-terminal spacer domain (ADAMTS4-2) (UniProt O75173 213-685).
T6 construct: ADAMTS-4 lacking the C-terminal spacer domain
T6 sequence (looked up): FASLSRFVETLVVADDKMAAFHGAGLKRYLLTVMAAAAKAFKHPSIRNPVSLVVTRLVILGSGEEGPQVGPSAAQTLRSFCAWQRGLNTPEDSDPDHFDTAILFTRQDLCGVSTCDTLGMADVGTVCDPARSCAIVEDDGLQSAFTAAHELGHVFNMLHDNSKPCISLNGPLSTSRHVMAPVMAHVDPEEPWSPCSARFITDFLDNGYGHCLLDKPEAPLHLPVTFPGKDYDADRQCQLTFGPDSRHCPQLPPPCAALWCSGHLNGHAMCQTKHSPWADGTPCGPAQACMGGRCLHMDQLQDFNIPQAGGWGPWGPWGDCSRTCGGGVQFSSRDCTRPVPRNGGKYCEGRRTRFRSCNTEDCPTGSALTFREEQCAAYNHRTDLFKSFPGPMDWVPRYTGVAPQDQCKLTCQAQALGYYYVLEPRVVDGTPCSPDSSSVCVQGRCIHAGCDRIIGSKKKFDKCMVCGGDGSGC
As to the kind of experiment: enzyme inhibition kinetics (fluorogenic peptide substrates); apparent Ki; enzyme pre-incubated with TIMP-3 (0.5-100 nM) 1 h at 37 °C, equilibrium rate of substrate hydrolysis; TNC buffer (50 mM Tris-HCl pH 7.5, 150 mM NaCl, 10 mM CaCl2, 0.05% Brij-35, 0.02% NaN3), 37 °C; tight-binding equation.

In assay [5] the target is T1, MMP-3 catalytic domain (MMP-3ΔC). Described as above.
Assay [6] deals with T7, MMP-13 (active enzyme of the inhibition assays) (UniProt P45452 20-471).
T7 construct: MMP-13 whose activity was measured (0.1 nM)
The description is as above.

Assay [7] concerns the target T6, FLAG-tagged ADAMTS-4 lacking the …. The description is as above. This is another data set of the same source.
The next assay deals with T8, ADAM17 ectodomain (UniProt P78536 215-671).
T8 construct: ADAM17 ectodomain from R&D Systems; source: bought: R&D Systems
The assay is described as above.

Assay [8] addresses T4, catalytic domain of human MMP-1 …. Described as above.

T5 sequence (Q07954 20-4544): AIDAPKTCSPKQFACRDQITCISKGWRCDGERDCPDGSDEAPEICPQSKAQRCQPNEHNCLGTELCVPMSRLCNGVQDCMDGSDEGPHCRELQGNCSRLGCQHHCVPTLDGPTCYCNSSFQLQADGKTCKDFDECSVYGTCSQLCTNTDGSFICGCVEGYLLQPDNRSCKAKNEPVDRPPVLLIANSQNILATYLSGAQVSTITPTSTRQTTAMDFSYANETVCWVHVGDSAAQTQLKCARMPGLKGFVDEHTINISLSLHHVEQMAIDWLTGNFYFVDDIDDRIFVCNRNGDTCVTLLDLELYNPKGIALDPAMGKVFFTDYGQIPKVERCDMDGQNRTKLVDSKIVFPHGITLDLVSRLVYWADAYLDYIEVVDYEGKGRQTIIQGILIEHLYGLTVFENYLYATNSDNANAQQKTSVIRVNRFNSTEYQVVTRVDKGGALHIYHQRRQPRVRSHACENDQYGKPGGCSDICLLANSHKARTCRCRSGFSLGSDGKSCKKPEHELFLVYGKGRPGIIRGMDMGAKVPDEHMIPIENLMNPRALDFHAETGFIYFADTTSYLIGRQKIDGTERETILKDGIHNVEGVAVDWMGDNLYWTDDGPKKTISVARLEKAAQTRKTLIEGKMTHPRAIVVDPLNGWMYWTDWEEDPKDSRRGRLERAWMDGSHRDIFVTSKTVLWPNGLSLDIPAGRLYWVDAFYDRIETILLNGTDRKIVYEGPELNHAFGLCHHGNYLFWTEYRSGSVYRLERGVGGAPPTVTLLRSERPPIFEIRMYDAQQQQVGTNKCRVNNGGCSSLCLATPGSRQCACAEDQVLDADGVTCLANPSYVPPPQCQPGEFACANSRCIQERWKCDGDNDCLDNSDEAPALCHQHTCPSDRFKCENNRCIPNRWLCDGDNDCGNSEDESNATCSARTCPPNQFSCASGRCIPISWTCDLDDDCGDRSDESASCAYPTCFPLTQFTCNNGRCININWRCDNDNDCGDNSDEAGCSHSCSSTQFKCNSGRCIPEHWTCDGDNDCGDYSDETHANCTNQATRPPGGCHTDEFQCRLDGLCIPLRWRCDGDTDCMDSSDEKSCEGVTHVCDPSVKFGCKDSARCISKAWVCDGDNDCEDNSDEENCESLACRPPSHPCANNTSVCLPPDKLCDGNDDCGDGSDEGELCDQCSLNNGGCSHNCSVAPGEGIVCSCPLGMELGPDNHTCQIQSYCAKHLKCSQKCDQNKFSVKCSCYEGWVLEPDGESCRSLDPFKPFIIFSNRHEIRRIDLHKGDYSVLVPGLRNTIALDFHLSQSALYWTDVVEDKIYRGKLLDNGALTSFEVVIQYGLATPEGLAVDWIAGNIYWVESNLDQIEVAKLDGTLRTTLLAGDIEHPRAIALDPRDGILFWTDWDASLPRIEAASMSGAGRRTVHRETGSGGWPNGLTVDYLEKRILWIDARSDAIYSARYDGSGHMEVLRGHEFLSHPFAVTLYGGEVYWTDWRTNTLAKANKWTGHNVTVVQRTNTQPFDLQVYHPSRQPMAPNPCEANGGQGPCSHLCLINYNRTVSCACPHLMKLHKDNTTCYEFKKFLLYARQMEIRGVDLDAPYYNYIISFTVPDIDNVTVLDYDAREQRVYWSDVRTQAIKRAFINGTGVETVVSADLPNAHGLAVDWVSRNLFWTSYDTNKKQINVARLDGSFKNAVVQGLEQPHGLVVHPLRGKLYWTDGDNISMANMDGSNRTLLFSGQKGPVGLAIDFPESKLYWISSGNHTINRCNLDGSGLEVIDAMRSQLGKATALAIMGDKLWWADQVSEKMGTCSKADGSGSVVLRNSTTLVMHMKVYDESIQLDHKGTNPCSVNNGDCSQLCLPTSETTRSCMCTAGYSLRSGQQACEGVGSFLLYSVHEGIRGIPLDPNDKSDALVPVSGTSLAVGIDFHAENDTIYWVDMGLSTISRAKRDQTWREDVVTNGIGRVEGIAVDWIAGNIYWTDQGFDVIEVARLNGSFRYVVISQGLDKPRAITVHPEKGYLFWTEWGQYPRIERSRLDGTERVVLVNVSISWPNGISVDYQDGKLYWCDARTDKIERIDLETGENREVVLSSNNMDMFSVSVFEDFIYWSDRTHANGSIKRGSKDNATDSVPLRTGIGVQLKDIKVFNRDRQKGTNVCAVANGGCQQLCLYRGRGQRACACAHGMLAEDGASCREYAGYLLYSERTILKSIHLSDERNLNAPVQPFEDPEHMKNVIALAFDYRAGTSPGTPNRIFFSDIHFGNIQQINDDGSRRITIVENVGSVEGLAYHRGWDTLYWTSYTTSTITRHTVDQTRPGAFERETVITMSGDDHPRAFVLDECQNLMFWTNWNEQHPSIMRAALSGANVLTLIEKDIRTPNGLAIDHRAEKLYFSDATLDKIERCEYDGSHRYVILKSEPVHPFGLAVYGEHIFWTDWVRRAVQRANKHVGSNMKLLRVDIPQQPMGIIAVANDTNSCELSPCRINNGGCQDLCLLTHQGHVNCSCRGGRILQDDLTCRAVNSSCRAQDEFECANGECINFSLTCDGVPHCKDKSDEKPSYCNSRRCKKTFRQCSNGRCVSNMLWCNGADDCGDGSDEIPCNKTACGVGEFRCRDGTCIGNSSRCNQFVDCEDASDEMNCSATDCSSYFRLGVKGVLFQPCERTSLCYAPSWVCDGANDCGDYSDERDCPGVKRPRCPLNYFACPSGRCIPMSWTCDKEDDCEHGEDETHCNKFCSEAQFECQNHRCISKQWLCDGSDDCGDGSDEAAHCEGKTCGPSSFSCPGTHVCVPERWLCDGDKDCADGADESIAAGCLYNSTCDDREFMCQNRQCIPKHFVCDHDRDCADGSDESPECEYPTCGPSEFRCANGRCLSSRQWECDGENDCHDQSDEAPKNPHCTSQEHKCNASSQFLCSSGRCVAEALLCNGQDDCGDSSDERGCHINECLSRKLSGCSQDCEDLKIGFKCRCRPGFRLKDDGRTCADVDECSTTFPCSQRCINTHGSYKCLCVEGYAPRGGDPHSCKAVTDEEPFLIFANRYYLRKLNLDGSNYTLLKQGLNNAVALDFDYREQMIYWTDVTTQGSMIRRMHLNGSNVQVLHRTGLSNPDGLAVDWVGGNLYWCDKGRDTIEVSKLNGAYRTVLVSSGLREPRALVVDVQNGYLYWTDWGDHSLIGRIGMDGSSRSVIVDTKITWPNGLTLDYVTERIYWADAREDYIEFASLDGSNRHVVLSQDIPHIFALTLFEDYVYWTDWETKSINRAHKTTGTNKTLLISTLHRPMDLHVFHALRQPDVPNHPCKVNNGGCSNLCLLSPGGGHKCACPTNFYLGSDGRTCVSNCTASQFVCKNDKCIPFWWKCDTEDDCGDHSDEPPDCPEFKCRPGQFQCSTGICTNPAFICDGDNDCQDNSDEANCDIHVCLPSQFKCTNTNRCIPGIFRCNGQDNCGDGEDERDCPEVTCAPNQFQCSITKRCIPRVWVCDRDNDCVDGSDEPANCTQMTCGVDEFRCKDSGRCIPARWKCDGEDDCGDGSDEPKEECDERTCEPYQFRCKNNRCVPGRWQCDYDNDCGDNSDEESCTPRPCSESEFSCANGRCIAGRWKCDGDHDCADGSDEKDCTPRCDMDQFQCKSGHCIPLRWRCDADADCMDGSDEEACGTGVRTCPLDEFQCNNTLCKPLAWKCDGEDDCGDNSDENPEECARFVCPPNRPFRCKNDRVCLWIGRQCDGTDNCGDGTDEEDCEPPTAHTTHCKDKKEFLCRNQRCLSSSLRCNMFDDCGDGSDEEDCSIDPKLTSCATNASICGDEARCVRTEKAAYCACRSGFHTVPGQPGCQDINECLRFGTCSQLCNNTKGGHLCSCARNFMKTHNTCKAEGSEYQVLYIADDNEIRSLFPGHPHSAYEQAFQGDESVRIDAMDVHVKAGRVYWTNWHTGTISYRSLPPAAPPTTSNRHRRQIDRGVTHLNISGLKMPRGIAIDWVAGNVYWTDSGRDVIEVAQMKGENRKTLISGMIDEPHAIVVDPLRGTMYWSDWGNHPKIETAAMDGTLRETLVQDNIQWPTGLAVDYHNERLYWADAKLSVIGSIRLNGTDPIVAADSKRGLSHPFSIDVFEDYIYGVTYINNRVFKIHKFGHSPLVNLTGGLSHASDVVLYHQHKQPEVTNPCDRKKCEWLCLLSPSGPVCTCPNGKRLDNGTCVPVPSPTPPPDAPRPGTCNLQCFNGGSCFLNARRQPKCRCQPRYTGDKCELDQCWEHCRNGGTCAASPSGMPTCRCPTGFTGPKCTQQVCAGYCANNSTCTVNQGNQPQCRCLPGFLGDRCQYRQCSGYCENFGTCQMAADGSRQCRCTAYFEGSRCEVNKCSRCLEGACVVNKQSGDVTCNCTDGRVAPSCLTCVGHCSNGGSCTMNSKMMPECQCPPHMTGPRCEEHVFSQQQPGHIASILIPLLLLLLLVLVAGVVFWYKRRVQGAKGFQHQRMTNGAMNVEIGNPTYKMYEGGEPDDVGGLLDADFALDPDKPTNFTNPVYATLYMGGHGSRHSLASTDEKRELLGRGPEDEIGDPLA
T1 sequence (P08254 100-272, stated change not applied): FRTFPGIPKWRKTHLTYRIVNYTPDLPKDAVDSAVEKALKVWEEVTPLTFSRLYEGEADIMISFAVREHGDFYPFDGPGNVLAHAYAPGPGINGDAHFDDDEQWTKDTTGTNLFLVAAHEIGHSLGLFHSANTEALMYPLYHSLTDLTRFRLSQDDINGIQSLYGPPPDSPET
T8 sequence (P78536 215-671): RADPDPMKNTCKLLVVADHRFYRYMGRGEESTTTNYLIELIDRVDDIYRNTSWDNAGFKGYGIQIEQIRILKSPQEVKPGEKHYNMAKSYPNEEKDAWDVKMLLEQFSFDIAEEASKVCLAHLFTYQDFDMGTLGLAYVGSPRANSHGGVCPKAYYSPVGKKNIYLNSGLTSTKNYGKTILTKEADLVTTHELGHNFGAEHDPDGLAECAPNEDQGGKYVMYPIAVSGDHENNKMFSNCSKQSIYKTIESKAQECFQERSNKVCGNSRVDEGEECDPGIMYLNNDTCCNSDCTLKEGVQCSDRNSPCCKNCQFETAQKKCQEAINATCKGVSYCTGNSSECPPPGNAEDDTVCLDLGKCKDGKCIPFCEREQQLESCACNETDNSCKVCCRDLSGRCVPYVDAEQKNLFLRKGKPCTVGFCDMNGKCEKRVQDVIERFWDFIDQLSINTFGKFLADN

B1: FLAG-tagged TIMP-3 (natural protein, UniProt P35625 24-211, looked up)
chain: CTCSPSHPQDAFCNSDIVIRAKVVGKKLVKEGPFGTLVYTIKQMKMYRGFTKMPHVQYIHTEASESLCGLKLEVNKYQYLLTGRVYDGKMYTGLCNFVERWDQLTLSQRKGLNYRYHLGCNCKIKSCYYLPCFVTSKNECLWTDMLSNFGYPGYQSKHYACIRQKGGYCSWYRGWAPPDKSIINATDP
notes: also called T3; [35S]TIMP-3
On to B1, for which the “stoichiometry N” value (in assay [1]; with MMP-9; with ectodomain of MMP-14; in [2]) was 1 throughout. In addition, the affinity in [3], expressed as Kd, was 1.68 nM. In addition, the koff in assay [3] worked out at 0.00389 s⁻¹. Further, the kon in assay [3] came out at 2.31e+06 M⁻¹ s⁻¹. Besides, the Ki in [4] is 1.24 nM; in assay [5], 0.55 nM; in [6], under 0.5 nM; in assay [7] it was 0.124 nM; in the assay with ADAM17 ectodomain, 3.61 nM; in assay [8] it was 1.86 nM.

By stoichiometry N is commonly meant the number of molecules, sites or subunits per partner or assembly. The term Kd denotes the equilibrium constant for the complex coming apart. The low end stands for tighter binding, the high end for weaker binding. As a reminder, the koff is a measure of how fast the partners let go of each other. The kon is a measure of how fast the partners come together. A lower kon goes with slow association.
